Source: paper PMC12169213 (Science (New York, N.Y.), 2025)

Key:
mCherry-BLM = mCherry-BLM (UniProt P54132 1-1417); experiment: DNA curtain single-molecule imaging
BRCA1-BARD1 = BRCA1-BARD1 (UniProt P38398 1-1863; Q99728 1-777); experiment: pull-down
BRCA1-BARD1, sequence (P38398 whole entry, chain 1 of 2): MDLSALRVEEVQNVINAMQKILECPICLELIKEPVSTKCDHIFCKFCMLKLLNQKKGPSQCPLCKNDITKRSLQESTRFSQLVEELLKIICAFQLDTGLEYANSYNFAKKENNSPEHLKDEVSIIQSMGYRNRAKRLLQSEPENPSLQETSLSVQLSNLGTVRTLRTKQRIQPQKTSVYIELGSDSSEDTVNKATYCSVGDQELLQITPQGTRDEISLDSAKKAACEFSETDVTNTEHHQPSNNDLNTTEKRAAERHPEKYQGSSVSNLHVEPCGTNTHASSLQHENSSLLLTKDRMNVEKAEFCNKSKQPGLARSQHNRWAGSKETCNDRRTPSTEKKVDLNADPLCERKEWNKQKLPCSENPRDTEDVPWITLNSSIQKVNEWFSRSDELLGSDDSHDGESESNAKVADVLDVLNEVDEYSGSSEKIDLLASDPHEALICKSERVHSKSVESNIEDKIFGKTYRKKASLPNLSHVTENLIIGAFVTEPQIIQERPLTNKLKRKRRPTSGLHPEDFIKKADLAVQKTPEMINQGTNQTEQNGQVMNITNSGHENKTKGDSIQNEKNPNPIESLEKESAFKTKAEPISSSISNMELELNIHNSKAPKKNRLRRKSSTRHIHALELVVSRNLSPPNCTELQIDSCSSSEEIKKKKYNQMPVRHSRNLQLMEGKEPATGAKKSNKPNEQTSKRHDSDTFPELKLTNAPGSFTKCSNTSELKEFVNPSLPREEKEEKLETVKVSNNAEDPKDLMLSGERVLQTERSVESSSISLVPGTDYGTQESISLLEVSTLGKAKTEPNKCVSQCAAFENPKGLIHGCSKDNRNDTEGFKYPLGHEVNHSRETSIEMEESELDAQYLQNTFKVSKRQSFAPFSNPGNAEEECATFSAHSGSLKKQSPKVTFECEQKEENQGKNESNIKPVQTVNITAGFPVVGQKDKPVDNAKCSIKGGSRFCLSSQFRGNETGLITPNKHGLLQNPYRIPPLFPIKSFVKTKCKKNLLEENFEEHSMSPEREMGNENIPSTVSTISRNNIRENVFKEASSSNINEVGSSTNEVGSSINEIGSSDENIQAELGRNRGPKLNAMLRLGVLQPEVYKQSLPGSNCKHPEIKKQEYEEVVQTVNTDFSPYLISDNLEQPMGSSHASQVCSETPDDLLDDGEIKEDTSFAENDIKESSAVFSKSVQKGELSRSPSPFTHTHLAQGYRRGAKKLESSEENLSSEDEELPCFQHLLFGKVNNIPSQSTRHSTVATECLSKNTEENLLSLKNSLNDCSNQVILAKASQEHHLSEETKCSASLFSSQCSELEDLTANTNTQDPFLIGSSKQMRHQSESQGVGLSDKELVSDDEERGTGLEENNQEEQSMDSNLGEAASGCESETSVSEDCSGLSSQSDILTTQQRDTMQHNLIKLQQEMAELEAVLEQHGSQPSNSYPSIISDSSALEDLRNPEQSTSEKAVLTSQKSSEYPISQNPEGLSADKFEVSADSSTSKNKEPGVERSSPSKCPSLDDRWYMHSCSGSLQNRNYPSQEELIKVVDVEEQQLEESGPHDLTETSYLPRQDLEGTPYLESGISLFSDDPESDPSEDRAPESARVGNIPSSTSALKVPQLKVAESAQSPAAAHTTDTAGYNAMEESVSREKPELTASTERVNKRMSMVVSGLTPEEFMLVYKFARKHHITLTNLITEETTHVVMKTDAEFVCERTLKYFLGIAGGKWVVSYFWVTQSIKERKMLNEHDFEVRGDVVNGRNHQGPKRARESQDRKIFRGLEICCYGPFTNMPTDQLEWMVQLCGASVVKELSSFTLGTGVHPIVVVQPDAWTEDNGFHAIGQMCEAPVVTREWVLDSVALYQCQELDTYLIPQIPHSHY
BRCA1-BARD1, sequence (Q99728 whole entry, chain 2 of 2): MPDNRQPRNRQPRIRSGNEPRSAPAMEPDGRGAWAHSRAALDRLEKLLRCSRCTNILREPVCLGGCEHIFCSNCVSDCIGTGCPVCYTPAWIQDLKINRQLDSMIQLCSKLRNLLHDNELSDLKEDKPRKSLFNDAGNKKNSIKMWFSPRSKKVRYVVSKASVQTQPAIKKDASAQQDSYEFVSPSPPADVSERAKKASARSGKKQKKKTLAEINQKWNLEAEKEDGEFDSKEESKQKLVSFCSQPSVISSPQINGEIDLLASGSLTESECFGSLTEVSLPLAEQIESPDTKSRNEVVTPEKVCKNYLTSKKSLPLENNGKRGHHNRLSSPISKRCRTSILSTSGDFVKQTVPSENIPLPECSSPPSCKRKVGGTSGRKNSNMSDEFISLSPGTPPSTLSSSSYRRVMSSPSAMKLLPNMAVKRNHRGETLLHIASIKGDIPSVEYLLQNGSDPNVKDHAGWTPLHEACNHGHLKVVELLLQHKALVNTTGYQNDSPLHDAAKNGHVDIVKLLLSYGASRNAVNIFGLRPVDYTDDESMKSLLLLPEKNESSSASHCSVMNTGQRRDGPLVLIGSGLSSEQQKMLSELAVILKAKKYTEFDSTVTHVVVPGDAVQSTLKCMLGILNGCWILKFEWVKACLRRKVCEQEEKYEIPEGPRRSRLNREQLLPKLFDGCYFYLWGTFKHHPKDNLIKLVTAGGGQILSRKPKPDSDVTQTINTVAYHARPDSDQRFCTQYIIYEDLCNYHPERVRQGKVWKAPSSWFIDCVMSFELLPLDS

mCherry-BLM, sequence (P54132 whole entry): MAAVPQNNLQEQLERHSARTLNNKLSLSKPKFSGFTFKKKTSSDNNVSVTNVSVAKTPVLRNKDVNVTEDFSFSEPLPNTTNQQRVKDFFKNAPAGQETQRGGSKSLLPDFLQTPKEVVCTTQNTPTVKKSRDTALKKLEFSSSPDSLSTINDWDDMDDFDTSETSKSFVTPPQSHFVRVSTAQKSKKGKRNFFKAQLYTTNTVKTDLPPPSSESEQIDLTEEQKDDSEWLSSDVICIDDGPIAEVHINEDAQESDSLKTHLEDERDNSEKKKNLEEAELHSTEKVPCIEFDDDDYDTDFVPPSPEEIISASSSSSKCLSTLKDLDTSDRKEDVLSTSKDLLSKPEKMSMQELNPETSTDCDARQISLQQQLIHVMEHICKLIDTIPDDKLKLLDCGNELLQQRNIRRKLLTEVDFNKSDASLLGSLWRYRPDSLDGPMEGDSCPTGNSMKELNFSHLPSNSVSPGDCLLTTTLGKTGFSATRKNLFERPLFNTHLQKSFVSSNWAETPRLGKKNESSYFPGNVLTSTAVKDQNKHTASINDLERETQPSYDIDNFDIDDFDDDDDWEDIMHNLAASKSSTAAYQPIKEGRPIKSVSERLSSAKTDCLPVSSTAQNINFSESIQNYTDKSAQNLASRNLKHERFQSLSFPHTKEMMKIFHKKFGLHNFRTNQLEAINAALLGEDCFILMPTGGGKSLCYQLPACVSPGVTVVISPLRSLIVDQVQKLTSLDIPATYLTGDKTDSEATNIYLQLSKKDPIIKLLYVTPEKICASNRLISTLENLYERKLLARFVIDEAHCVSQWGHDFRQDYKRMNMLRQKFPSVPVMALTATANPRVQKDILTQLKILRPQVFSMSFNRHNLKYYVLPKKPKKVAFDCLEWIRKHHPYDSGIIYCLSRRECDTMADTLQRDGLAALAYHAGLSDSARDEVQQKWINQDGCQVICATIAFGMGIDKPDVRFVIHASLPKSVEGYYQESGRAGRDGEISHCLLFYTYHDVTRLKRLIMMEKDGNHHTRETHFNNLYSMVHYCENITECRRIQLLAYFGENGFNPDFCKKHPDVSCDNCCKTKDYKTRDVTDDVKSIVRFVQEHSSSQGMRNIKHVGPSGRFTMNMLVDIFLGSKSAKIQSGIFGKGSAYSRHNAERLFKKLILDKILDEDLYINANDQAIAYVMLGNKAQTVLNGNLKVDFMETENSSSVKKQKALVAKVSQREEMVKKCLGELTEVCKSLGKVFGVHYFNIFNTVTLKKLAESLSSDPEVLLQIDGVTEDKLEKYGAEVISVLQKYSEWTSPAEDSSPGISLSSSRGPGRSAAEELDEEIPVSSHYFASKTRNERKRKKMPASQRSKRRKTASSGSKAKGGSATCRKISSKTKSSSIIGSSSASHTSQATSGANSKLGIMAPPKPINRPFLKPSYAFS

B1: green fluorescent protein (GFP)-DNA2 (enzyme, UniProt P51530 1-1060, looked up)
chain: MEQLNELELLMEKSFWEEAELPAELFQKKVVASFPRTVLSTGMDNRYLVLAVNTVQNKEGNCEKRLVITASQSLENKELCILRNDWCSVPVEPGDIIHLEGDCTSDTWIIDKDFGYLILYPDMLISGTSIASSIRCMRRAVLSETFRSSDPATRQMLIGTVLHEVFQKAINNSFAPEKLQELAFQTIQEIRHLKEMYRLNLSQDEIKQEVEDYLPSFCKWAGDFMHKNTSTDFPQMQLSLPSDNSKDNSTCNIEVVKPMDIEESIWSPRFGLKGKIDVTVGVKIHRGYKTKYKIMPLELKTGKESNSIEHRSQVVLYTLLSQERRADPEAGLLLYLKTGQMYPVPANHLDKRELLKLRNQMAFSLFHRISKSATRQKTQLASLPQIIEEEKTCKYCSQIGNCALYSRAVEQQMDCSSVPIVMLPKIEEETQHLKQTHLEYFSLWCLMLTLESQSKDNKKNHQNIWLMPASEMEKSGSCIGNLIRMEHVKIVCDGQYLHNFQCKHGAIPVTNLMAGDRVIVSGEERSLFALSRGYVKEINMTTVTCLLDRNLSVLPESTLFRLDQEEKNCDIDTPLGNLSKLMENTFVSKKLRDLIIDFREPQFISYLSSVLPHDAKDTVACILKGLNKPQRQAMKKVLLSKDYTLIVGMPGTGKTTTICTLVRILYACGFSVLLTSYTHSAVDNILLKLAKFKIGFLRLGQIQKVHPAIQQFTEQEICRSKSIKSLALLEELYNSQLIVATTCMGINHPIFSRKIFDFCIVDEASQISQPICLGPLFFSRRFVLVGDHQQLPPLVLNREARALGMSESLFKRLEQNKSAVVQLTVQYRMNSKIMSLSNKLTYEGKLECGSDKVANAVINLRHFKDVKLELEFYADYSDNPWLMGVFEPNNPVCFLNTDKVPAPEQVEKGGVSNVTEAKLIVFLTSIFVKAGCSPSDIGIIAPYRQQLKIINDLLARSIGMVEVNTVDKYQGRDKSIVLVSFVRSNKDGTVGELLKDWRRLNVAITRAKHKLILLGCVPSLNCYPPLEKLLNHLNSEKLIIDLPSREHESLCHILGDFQRE
binding result (mCherry-BLM): binds

B2: CTC1-STN1-TEN1 (CST) complex (complex)
chain 1: AAGRAQVPSSEQAWLEDAQVFIQKTLCPAVKEPNVQLTPLVIDCVKTVWLSQGRNQGSTLPLSYSFVSVQDLKTHQRLPCCSHLSWSSSAYQAWAQEAGPNGNPLPREQLLLLGTLTDLSADLEQECRNGSLYVRDNTGVLSCELIDLDLSWLGHLFLFPRWSYLPPARWNSSGEGHLELWDAPVPVFPLTISPGPVTPIPVLYPESASCLLRLRNKLRGVQRNLAGSLVRLSALVKSKQKAYFILSLGRSHPAVTHVSIIVQVPAQLVWHRALRPGTAYVLTELRVSKIRGQRQHVWMTSQSSRLLLLKPECVQELELELEGPLLEADPKPLPMPSNSEDKKDPESLVRYSRLLSYSGAVTGVLNEPAGLYELDGQLGLCLAYQQFRGLRRVMRPGVCLQLQDVHLLQSVGGGTRRPVLAPCLRGAVLLQSFSRQKPGAHSSRQAYGASLYEQLVWERQLGLPLYLWATKALEELACKLCPHVLRHHQFLQHSSPGSPSLGLQLLAPTLDLLAPPGSPVRNAHNEILEEPHHCPLQKYTRLQTPSSFPTLATLKEEGQRKAWASFDPKALLPLPEASYLPSCQLNRRLAWSWLCLLPSAFCPAQVLLGVLVASSHKGCLQLRDQSGSLPCLLLAKHSQPLSDPRLIGCLVRAERFQLIVERDVRSSFPSWKELSMPGFIQKQQARVYVQFFLADALILPVPRPCLHSATPSTPQTDPTGPEGPHLGQSRLFLLCHKEALMKRNFCVPPGASPEVPKPALSFYVLGSWLGGTQRKEGTGWGLPEPQGNDDNDQKVHLIFFGSSVRWFEFLHPGQVYRLIAPGPATPMLFEKDGSSCISRRPLELAGCASCLTVQDNWTLELESSQDIQDVLDANKSLPESSLTDLLSDNFTDSLVSFSAEILSRTLCEPLVASLWMKLGNTGAMRRCVKLTVALETAECEFPPHLDVYIEDPHLPPSLGLLPGARVHFSQLEKRVSRSHNVYCCFRSSTYVQVLSFPPETTISIPLPHIYLAELLQGGQSPFQATASCHIVSVFSLQLFWVCAYCTSICRQGKCTRLGSTCPTQTAISQAIIRLLVEDGTAEAVVTCRNHHVAAALGLCPREWASLLDFVQVPGRVVLQFAGPGAQLESSARVDEPMTMFLWTLCTSPSVLRPIVLSFELERKPSKIVPLEPPRLQRFQCGELPFLTHVNPRLRLSCLSIRESEYSSSLGILASSC
chain 2: QPGSSRCEEETPSLLWGLDPVFLAFAKLYIRDILDMKESRQVPGVFLYNGHPIKQVDVLGTVIGVRERDAFYSYGVDDSTGVINCICWKKLNTESVSAAPSAARELSLTSQLKKLQETIEQKTKIEIGDTIRVRGSIRTYREEREIHATTYYKVDDPVWNIQIARMLELPTIYRKVYDQPFHSSALEKEEALSNPGALDLPSLTSLLSEKAKEFLMENRVQSFYQQELEMVESLLSLANQPVIHSASSDQVNFKKDTTSKAIHSIFKNAIQLLQEKGLVFQKDDGFDNLYYVTREDKDLHRKIHRIIQQDCQKPNHMEKGCHFLHILACARLSIRPGLSEAVLQQVLELLEDQSDIVSTMEHYYTAF
chain 3: LPKPGTYYLPWEVSAGQVPDGSTLRTFGRLCLYDMIQSRVTLMAQHGSDQHQVLVCTKLVEPFHAQVGSLYIVLGELQHQQDRGSVVKARVLTCVEGMNLPLLEQAIREQRLYKQERGGSQ
binding result (BRCA1-BARD1): binds
